Experiments:
[1] = biological target: T1, human CD20 (human, UniProt P11836 1-297); experiment: cell-based or functional assay
T1 sequence (looked up): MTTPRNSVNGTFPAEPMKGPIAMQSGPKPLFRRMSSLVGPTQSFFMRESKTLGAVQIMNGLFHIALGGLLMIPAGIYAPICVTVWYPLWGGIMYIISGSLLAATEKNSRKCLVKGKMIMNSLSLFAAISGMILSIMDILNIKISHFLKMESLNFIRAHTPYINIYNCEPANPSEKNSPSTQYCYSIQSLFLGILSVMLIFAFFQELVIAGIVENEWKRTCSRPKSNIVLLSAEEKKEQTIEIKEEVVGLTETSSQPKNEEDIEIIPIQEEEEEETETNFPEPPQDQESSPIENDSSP

[2] = biological target: T1, human CD20; experiment: cell-based or functional assay; remark: listed apart in the source
[3] = biological target: T1, human CD20; experiment: cell-based or functional assay; remark: listed apart in the source
[4] = biological target: T1, human CD20; experiment: cell-based or functional assay; remark: listed apart in the source
[5] = biological target: T1, human CD20; experiment: cell-based or functional assay; remark: listed apart in the source
[6] = biological target: T2, human TCR/CD3 complex on purified primary human T cells (human); experiment: flow cytometry on primary human T cells
T2 construct: Natural complex on T cells isolated from buffy coats of healthy donors; also called hu T cells; purified primary T cells
T2 sequence (delta, as listed by the source limits assumed, chain 1 of 4): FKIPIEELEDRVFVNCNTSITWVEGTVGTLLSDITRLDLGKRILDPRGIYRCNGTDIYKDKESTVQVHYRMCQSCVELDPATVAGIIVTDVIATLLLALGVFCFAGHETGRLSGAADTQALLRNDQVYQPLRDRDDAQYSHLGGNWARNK
T2 sequence (gamma, as listed by the source limits assumed, chain 2 of 4): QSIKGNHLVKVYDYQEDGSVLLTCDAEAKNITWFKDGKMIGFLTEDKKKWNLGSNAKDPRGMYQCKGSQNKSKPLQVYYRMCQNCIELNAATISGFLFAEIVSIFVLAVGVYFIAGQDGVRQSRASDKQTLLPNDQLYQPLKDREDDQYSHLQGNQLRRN
T2 sequence (epsilon, as listed by the source limits assumed, chain 3 of 4): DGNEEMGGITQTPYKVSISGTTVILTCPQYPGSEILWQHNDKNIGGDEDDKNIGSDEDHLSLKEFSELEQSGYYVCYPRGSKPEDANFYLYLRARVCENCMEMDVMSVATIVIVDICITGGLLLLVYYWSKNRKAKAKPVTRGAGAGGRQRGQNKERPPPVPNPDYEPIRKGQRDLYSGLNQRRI
T2 sequence (zeta, as listed by the source limits assumed, chain 4 of 4): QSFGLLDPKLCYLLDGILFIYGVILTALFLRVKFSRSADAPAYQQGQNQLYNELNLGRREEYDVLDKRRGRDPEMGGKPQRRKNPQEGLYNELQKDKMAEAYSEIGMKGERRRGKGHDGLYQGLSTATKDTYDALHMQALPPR

[7] = biological target: T1, human CD20; experiment: flow cytometry on human CD20 positive Ramos cells
[8] = biological target: T2, human TCR/CD3 complex on purified …; experiment: flow cytometry on purified primary human T cells
[9] = biological target: T3, human CD3 expressed on HEK293H cells (human, UniProt P20963 22-164); experiment: flow cytometry on HEK293H cells expressing human CD3
T3 construct: also called HEK293H CD3; HEK293H human CD3
T3 sequence (chain, as listed by the source limits assumed, chain 1 of 4): as the sequence (delta, as listed by the source limits assumed, chain 1 of 4) above
T3 sequence (chain, as listed by the source limits assumed, chain 2 of 4): as the sequence (gamma, as listed by the source limits assumed, chain 2 of 4) above
T3 sequence (chain, as listed by the source limits assumed, chain 3 of 4): as the sequence (epsilon, as listed by the source limits assumed, chain 3 of 4) above
T3 sequence (P20963 22-164 limits assumed, chain 4 of 4): as the sequence (zeta, as listed by the source limits assumed, chain 4 of 4) above
Source text: The parental HEK293H cell line was included as TCR/CD3 negative cell line.

[10] = biological target: T1, human CD20; experiment: flow cytometry on Raji cells, MCF (Mean PE)
[11] = biological target: T1, human CD20; experiment: flow cytometry on Ramos cells, MCF (Mean PE)

B1: T017000062 (bispecific antibody)
chain: EVQLVESGGGLVQPGGSLRLSCTFSGGTFSSYTMGWFRQAPGKEREFVAEVRWGGVTTYSNSLKDRFSISEDSVKNAVYLQMNSLKPEDTAVYYCAAVRQMYMTVVPDYWGQGTLVTVSSGGGGSGGGGSGGGGSGGGGSGGGGSGGGGSGGGGSEVQLVESGGGPVQAGGSLRLSCAASGRTYRGYSMGWFRQAPGKEREFVAAIVWSGGNTYYEDSVKGRFTISRDNAKNTMYLQMTSLKPEDSATYYCAAKIRPYIFKIAGQYDYWGQGTLVTVSSGAADYKDHDGDYKDHDIDYKDDDDKGAAHHHHHH
notes: Bispecific Nanobody construct with tags, expressed in Pichia; also called 20CD019C07-35GS-T0170117G03-FLAG3-HIS6; CD20xCD3 (cluster A)
- % lysis (% dead cells at 500 nM Nanobody minus no Nanobody control), Ramos killing assay, E:T 10:1 [1]: 22%
- Average IC50 (M), flow cytometry based primary human T cell mediated Ramos killing assay, E:T 10:1 [1]: 3.9e-09 M
- Average IC50 (M), xCELLigence based human T cell mediated CHO-K1 CD20 killing assay, E:T 30:1, 44 h [2]: 7.88e-10 M
- IC50 (M), flow cytometry based T cell mediated Ramos killing assay, E:T 1 [3]: 2.5e-08 M
- IC50 (M), flow cytometry based T cell mediated Ramos killing assay, E:T 2 [3]: 7.1e-09 M
- IC50 (M), flow cytometry based T cell mediated Ramos killing assay, E:T 5 [3]: 8.7e-09 M
- IC50 (M), flow cytometry based T cell mediated Ramos killing assay, E:T 10 [3]: 7.3e-09 M
- EC50 (M) (title: IC50), T cell dependent B-cell (Ramos) killing assay [4]: 6.4e-10 M
- EC50 (M) of IFN-γ secretion by human T cells (ELISA, 72 h) in the xCELLigence based CHO-K1 human CD20 killing assay [5]: 6.2e-10 M
- EC50 [6]: 89 nM
- EC50 [7]: 1.9 nM

B2: T0170117G03 (VHH)
VHH: EVQLVESGGGPVQAGGSLRLSCAASGRTYRGYSMGWFRQAPGKEREFVAAIVWSGGNTYYEDSVKGRFTISRDNAKNTMYLQMTSLKPEDSATYYCAAKIRPYIFKIAGQYDYWGQGTQVTVSS
notes: Monovalent anti-CD3 Nanobody, expressed in E. coli TG1 as triple Flag, His6-tagged protein; also called T0170PMP117G03; cluster A representative; not shown: C-terminal triple FLAG and His6 tag
- EC50 [8]: 22 nM

B3: T0170075G11 (VHH)
VHH: EVQLVESGGGPVQAGDSLRLSCAASGRTYRGYSMGWFRQVPGKEREFVAAIVWTDGNTYYEDSVKGRFTISRDITKNTMYLHMTSLKPEDSATYYCAAKIRPYIFKIAGQYDYWGQGTQVTVSS
notes: also called T0170PMP075G11; cluster A; not shown: C-terminal triple FLAG and His6 tag
- EC50 [9]: 84 nM

B4: 20CD019C07 (VHH)
VHH: EVQLVESGGGLVQPGGSLRLSCTFSGGTFSSYTMGWFRQAPGKEREFVAEVRWGGVTTYSNSLKDRFSISEDSVKNAVYLQMNSLKPEDTAVYYCAAVRQMYMTVVPDYWGQGTLVTVSS
notes: also called the anti-CD20 Nanobody; human CD20 targeting Nanobody
- EC50 (read off the curve) [10]: ~20 nM
- EC50 (read off the curve) [11]: ~9 nM

From patent publication US20250388672A1 (Ablynx, published 2025)
